Laboratory results as given in patent US20150118212A1.
Positions count from the first letter of the chain named. In names and notes the source's numbering stands.

B1: SAK 1CCT (protein)
chain: SSSFDKGKYKKGDDASYFEPTGPYLMVNVTGVDGKGNELLSPHYVEFPIKPGTTLTKEKIEYYVEWALDATAYKEFRVVELDPSAKIEVTYYDKNKKKEETKSFPITEKGFVVPDLSEHIKNPGFNLITKVVIEKKAC
B2: SAK 2CCT (protein)
chain: B1 chain with A137C
B3: SAK 2CNT (protein)
chain: MCCSSSFDKGKYKKGDDASYFEPTGPYLMVNVTGVDGKGNELLSPHYVEFPIKPGTTLTKEKIEYYVEWALDATAYKEFRVVELDPSAKIEVTYYDKNKKKEETKSFPITEKGFVVPDLSEHIKNPGFNLITKVVIEKK
B4: SAK (Recombinant) (protein)
chain: SSSFDKGKYKKGDDASYFEPTGPYLMVNVTGVDGKGNELLSPHYVEFPIKPGTTLTKEKIEYYVEWALDATAYKEFRVVELDPSAKIEVTYYDKNKKKEETKSFPITEKGFVVPDLSEHIKNPGFNLITKVVIEKK
B5: SAK S3C (protein)
chain: B4 chain with S3C
B6: SAK 1CNT (protein)
chain: MCSSSFDKGKYKKGDDASYFEPTGPYLMVNVTGVDGKGNELLSPHYVEFPIKPGTTLTKEKIEYYVEWALDATAYKEFRVVELDPSAKIEVTYYDKNKKKEETKSFPITEKGFVVPDLSEHIKNPGFNLITKVVIEKK

Target: T1, human plasminogen, P00747
T1 chain: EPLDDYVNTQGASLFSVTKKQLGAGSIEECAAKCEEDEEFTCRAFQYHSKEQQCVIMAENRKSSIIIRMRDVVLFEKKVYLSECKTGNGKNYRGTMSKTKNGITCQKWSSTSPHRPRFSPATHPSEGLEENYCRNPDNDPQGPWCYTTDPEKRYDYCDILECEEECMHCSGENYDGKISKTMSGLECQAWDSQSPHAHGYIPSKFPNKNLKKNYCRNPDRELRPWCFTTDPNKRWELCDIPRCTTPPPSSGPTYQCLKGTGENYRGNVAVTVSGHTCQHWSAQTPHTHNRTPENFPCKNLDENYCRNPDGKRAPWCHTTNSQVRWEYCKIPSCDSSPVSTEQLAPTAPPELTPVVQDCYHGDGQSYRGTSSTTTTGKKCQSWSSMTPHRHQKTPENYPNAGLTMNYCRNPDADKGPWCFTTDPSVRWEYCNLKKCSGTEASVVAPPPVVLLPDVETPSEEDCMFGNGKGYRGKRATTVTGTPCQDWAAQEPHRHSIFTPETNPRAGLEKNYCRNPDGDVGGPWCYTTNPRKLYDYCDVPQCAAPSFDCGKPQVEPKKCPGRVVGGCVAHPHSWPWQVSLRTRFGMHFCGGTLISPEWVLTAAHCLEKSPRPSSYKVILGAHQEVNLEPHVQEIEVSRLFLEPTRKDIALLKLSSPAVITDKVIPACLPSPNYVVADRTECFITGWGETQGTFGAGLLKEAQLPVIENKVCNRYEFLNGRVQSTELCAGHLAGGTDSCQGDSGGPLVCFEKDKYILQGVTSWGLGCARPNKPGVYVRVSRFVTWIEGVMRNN

Protein | Specific Activity (U/mg)
B1 | 64 ± 4.5 U/mg
B2 | 65 ± 3.8 U/mg
B3 | 57 ± 3 8 U/mg
B4 | 66 ± 3.5 U/mg
B5 | 60 ± 4.1 U/mg
B6 | 40 ± 4.3 U/mg
